From patent US20090263375A1 (WISCONSIN ALUMNI RESEARCH FOUNDATION, published 2009)
One block for each binder: values may come before it.

B1: Flag-PAPα (canonical poly(A) polymerase) (enzyme)
chain: MPFPVTTQGSQQTQPPQKHYGITSPISLAAPKETDCVLTQKLIETLKPFGVFEEEEELQRRILILGKLNNLVKEWIREISESKNLPQSVIENVGGKIFTFGSYRLGVHTKGADIDALCVAPRHVDRSDFFTSFYDKLKLQEEVKDLRAVEEAFVPVIKLCFDGIEIDILFARLALQTIPEDLDLRDDSLLKNLDIRCIRSLNGCRVTDEILHLVPNIDNFRLTLRAIKLWAKRHNIYSNILGFLGGVSWAMLVARTCQLYPNAIASTLVHKFFLVFSKWEWPNPVLLKQPEECNLNLPVWDPRVNPSDRYHLMPIITPAYPQQNSTYNVSVSTRMVMVEEFKQGLAITDEILLSKAEWSKLFEAPNFFQKYKHYIVLLASAPTEKQRLEWVGLVESKIRILVGSLEKNEFITLAHVNPQSFPAPKENPDKEEFRTMWVIGLVFKKTENSENLSVDLTYDIQSFTDTVYRQAINSKMFEVDMKIAAMHVKRKQLHQLLPNHVLQKKKKHSTEGVKLTALNDSSLDLSMDSDNSMSVPSPTSATKTSPLNSSGSSQGRNSPAPAVTAASVTNIQATEVSVPQVNSSESSGGTSSESIPQTATQPAISPPPKPTVSRVVSSTRLVNPPPRSSGNAATSGNAATKIPTPIVGVKRTSSPHKEESPKKTKTEEDETSEDANCLALSGHDKTEAKEQLDTETSTTQSETIQTAASLLASQKTSSTDLSDIPALPANPIPVIKNSIKLRLNR
notes: not shown: FLAG tag

Tests used:
Symplekin = target: T1, Symplekin (human, UniProt Q92797 1-1274); experiment: FLAG affinity purification from HEK 293 cells, western blot
T1 sequence (looked up): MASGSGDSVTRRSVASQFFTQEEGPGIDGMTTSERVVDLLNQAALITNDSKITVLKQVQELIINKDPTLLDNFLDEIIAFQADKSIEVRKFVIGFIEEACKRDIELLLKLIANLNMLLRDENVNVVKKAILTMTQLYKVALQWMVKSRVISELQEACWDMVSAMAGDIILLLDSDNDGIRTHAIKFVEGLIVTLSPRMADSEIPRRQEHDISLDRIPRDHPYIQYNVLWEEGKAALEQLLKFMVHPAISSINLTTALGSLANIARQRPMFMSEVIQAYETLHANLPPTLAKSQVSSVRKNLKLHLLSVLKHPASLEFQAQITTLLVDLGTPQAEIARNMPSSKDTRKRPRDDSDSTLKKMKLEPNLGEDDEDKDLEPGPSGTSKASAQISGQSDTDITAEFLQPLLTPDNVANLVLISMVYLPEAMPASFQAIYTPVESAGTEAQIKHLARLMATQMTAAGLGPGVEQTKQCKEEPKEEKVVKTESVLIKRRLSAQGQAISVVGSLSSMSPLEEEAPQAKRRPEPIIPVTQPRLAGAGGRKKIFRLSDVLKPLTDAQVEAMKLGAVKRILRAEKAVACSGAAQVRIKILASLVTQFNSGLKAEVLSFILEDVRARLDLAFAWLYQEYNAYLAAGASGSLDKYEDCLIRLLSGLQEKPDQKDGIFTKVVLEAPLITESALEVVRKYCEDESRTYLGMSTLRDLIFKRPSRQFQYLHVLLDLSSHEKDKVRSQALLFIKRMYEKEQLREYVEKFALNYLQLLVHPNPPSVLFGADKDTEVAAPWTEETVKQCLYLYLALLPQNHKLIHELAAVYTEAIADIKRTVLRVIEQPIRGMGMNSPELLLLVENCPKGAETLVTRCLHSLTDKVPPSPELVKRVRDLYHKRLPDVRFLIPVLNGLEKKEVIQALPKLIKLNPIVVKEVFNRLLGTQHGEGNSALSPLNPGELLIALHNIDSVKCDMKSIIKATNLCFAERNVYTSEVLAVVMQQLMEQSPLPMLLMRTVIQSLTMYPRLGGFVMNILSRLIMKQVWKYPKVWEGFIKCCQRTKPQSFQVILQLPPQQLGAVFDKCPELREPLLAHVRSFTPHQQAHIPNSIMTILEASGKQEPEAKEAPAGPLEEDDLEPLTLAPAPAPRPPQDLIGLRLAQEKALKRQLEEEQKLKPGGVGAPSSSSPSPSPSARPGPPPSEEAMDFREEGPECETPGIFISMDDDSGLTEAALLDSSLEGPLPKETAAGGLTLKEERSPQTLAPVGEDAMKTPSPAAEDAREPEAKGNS
Procedure: (§1) Affinity purification of Flag-Star-PAP and Flag-PAPα and their associated complex of proteins in parallel allowed a comparison of the complexes formed by Star-PAP and PAPα in more detail. Flag tagged Star-PAP and PAPα were purified from HEK 293 cells stably expressing Flag-Star-PAP or Flag-PAPα (following manufacturer's instructions; Sigma-Aldrich) and the presence of endogenous symplekin, CPSF¹⁰⁰, CPSF⁷³, CstF⁶⁴, RNA Pol II, Sm protein (Y12) and PIPKIα was assessed by western blotting. Like Flag-PAPα, Flag-Star-PAP associates with symplekin, CPSF¹⁰⁰ and CPSF⁷³, further confirmation that Star-PAP may function in an mRNA polyadenylation complex (FIG. 7). Also detected with both PAPs was a faster migrating form of RNA Pol II and Sm protein (Y-12), a component of the spliceosome, which is consistent with reports that the machinery for splicing and polyadenylation are coupled.

[1] = target: T2, CPSF-100 (Cleavage and Polyadenylation Specificity Factor subunit 100) (human, UniProt Q9P2I0 1-782); experiment: as above
T2 construct: also called SPSF-100
T2 sequence (looked up): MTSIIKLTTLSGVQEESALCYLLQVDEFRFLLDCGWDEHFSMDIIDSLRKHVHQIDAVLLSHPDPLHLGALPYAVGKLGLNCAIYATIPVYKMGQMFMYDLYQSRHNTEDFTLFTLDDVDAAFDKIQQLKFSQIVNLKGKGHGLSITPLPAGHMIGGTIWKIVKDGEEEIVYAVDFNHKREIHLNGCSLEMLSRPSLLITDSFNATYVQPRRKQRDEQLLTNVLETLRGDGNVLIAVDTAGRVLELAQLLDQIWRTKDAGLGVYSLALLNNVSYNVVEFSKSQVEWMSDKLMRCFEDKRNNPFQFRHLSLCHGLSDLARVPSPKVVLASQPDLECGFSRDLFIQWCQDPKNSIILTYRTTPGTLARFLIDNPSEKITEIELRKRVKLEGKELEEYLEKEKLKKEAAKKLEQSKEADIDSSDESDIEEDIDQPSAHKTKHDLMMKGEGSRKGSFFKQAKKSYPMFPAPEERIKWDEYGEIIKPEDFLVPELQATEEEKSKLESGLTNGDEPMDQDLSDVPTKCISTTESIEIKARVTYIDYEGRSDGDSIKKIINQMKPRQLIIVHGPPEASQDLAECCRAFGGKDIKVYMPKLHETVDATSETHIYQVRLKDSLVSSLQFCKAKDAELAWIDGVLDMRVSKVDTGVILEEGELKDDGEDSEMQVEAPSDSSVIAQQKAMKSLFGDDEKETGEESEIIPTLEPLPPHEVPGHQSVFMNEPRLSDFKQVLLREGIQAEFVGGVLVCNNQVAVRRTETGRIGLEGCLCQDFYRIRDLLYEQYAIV
Procedure: as §1

[2] = target: B1; experiment: FLAG affinity purification from HEK 293 cells, immunoblot with a CKIα specific antibody
Procedure: (A) FLAG purified Star-PAP and PAPα complexes were separated by SDS-PAGE, transferred to nitrocellulose and probed with anti-FLAG and -CKIα antibodies. (B) Endogeneous Star-PAP was immunoprecipitated from HEK 293 cells. The resulting precipitates were immunoblotted with Star-PAP and CKIα specific antibodies. A non-specific IgG immunoprecipitation was used as a control. (C) Purified FLAG-Star-PAP complex was incubated with 0, 0.1, 1.0, or 100 μM IC261 (IC₅₀ 11 μM). (D) Purified FLAG-Star-PAP complex was incubated with […] (IC₅₀˜6.0 μM) prior to initiation of the kinase reaction by ATP. Arrow indicates Star-PAP protein.
Casein Kinase Iα (CKIα), is a protein kinase found in nuclear speckles; moreover, CKIα activity is inhibited by PI4,5P₂. […] FLAG proteins were expressed and purified as follows. Human Star-PAP and rat CKIα cDNAs were cloned in to the pFLAG-1 mammalian expression vector (Sigma). For each FLAG purification, four 10 cm dishes each containing ˜5×10^6 HEK 293 cells were transfected with 10 μg DNA and allowed to express for 48 hours. FLAG purifications were performed according to the manufacturer's directions.

[3] = target: B1; experiment: FLAG affinity purification from HEK 293 cells, western blot
Procedure: as §1

[4] = target: T3, Flag-Star-PAP (full length) (human, UniProt Q9H6E5 1-874); experiment: as above
T3 construct: Expressed in HEK 293 cells and purified on anti-FLAG M2 resin together with its associated complex; also called Flag tagged Star-PAP; full-length Star-PAP; not shown: FLAG tag
T3 sequence: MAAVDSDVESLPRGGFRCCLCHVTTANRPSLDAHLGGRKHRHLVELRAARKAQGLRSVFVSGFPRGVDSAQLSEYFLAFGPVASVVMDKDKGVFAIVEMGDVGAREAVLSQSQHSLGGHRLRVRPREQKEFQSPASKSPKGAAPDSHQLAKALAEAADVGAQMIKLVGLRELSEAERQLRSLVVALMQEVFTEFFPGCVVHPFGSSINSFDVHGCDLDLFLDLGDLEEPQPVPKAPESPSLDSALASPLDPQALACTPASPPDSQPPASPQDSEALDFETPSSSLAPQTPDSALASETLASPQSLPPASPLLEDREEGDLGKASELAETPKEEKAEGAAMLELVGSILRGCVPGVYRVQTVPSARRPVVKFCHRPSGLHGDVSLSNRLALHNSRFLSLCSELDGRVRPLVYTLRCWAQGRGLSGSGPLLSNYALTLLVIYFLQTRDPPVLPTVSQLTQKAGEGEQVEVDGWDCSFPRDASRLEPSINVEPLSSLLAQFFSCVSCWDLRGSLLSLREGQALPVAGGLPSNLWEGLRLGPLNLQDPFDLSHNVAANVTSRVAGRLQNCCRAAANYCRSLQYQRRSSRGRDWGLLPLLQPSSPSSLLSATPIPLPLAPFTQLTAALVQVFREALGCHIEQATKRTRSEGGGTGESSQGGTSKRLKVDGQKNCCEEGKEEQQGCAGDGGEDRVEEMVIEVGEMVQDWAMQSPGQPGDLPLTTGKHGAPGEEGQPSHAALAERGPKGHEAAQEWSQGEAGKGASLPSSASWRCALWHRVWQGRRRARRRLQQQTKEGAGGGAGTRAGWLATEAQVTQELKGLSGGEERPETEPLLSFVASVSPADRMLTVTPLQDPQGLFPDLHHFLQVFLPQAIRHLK
Procedure: as §1

endogenous Star-PAP = target: T4, endogenous Star-PAP (human, UniProt Q9H6E5 1-874); experiment: co-immunoprecipitation with antibodies against full-length Star-PAP, western blot
T4 sequence: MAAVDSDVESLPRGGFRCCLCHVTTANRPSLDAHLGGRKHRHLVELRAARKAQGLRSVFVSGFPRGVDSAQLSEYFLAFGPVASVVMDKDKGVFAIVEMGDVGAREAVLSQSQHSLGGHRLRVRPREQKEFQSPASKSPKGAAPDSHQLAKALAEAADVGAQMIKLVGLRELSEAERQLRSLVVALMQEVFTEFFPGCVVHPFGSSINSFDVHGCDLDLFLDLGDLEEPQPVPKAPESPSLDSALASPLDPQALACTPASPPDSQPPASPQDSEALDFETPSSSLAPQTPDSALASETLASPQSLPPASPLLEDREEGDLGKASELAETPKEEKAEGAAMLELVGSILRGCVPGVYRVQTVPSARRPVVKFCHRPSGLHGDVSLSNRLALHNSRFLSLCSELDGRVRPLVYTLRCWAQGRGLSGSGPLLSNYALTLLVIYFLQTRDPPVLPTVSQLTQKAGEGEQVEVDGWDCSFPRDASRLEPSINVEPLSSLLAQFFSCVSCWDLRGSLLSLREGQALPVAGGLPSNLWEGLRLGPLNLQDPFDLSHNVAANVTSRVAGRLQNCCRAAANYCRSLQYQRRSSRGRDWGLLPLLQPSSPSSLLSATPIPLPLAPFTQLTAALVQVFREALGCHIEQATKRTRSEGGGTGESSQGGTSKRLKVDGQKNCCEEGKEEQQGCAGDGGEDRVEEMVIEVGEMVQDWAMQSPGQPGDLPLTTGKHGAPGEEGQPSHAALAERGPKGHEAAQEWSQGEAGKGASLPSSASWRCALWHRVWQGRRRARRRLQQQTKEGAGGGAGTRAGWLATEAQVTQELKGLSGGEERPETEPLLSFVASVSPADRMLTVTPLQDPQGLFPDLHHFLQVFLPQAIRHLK

Binder: B1
- binding result (Symplekin): binds
- binding result [1]: binds

- binding result [2]: no binding
B2: Casein Kinase Iα (CKIα), endogenous (enzyme, human, UniProt P48729 2-337, looked up)
chain: ASSSGSKAEFIVGGKYKLVRKIGSGSFGDIYLAINITNGEEVAVKLESQKARHPQLLYESKLYKILQGGVGIPHIRWYGQEKDYNVLVMDLLGPSLEDLFNFCSRRFTMKTVLMLADQMISRIEYVHTKNFIHRDIKPDNFLMGIGRHCNKLFLIDFGLAKKYRDNRTRQHIPYREDKNLTGTARYASINAHLGIEQSRRDDMESLGYVLMYFNRTSLPWQGLKAATKKQKYEKISEKKMSTPVEVLCKGFPAEFAMYLNYCRGLRFEEAPDYMYLRQLFRILFRTLNHQYDYTFDWTMLKQKAAQQAASSSGQGQQAQTPTGKQTDKTKSNMKGF
notes: Detected with a CKIα specific antibody; also called CIKIα

- binding result [3]: no binding
- binding result [4]: binds
- binding result (endogenous Star-PAP): binds
B3: PIPKIα (endogenous) (enzyme, human, UniProt Q99755 1-562, looked up)
chain: MASASSGPSSSVGFSSFDPAVPSCTLSSAASGIKRPMASEVLEARQDSYISLVPYASGMPIKKIGHRSVDSSGETTYKKTTSSALKGAIQLGITHTVGSLSTKPERDVLMQDFYVVESIFFPSEGSNLTPAHHYNDFRFKTYAPVAFRYFRELFGIRPDDYLYSLCSEPLIELCSSGASGSLFYVSSDDEFIIKTVQHKEAEFLQKLLPGYYMNLNQNPRTLLPKFYGLYCVQAGGKNIRIVVMNNLLPRSVKMHIKYDLKGSTYKRRASQKEREKPLPTFKDLDFLQDIPDGLFLDADMYNALCKTLQRDCLVLQSFKIMDYSLLMSIHNIDHAQREPLSSETQYSVDTRRPAPQKALYSTAMESIQGEARRGGTMETDDHMGGIPARNSKGERLLLYIGIIDILQSYRFVKKLEHSWKALVHDGDTVSVHRPGFYAERFQRFMCNTVFKKIPLKPSPSKKFRSGSSFSRRAGSSGNSCITYQPSVSGEHKAQVTTKAEVEPGVHLGRPDVLPQTPPLEEISEGSPIPDPSFSPLVGETLQMLTTSTTLEKLEVAESEFTH
notes: Detected by western blot in immunoprecipitates and FLAG-purified complexes; also called type I phosphatidylinositol phosphate kinase alpha; PIP kinase
